According to publication PMC7382298 (Immunity, 2020):
Substitutions are numbered along the chain they refer to. Names and notes keep the numbering of the source.

Key:
[1] = target: T1, human full-length wild type gasdermin D (hGSDMD) (human, UniProt P57764 1-484); test: SEC
T1 sequence (looked up): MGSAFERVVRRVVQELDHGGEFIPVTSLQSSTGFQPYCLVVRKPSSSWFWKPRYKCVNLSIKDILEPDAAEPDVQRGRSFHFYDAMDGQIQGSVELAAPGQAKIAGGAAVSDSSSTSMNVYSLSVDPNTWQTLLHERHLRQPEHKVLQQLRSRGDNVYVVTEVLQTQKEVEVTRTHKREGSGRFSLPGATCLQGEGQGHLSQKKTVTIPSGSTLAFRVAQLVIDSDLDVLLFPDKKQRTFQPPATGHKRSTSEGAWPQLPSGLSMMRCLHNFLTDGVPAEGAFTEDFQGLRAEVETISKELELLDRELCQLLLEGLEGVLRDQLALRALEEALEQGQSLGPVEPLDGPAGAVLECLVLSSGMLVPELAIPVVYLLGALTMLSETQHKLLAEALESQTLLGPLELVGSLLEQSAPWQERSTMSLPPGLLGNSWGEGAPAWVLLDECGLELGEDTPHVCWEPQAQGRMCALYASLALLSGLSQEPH

[2] = target: T2, human GSDMD harboring truncation of residues 243-278 (human, UniProt P57764 1-484, truncation of residues 243-278); test: SEC
T2 sequence (looked up): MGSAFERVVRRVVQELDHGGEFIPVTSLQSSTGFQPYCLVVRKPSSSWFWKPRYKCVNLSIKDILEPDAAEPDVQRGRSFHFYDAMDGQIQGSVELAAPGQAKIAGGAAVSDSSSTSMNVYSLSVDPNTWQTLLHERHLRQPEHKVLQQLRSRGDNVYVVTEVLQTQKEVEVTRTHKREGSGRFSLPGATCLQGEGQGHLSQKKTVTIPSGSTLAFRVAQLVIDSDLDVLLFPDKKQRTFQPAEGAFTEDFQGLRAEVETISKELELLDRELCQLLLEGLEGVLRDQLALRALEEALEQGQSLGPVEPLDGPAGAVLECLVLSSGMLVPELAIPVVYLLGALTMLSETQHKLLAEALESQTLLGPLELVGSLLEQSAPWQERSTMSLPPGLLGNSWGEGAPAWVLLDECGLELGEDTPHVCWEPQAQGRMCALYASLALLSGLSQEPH

[3] = target: T3, mouse full-length wild type gasdermin D (mGSDMD) (mouse, UniProt Q9D8T2 1-487); test: SEC
T3 sequence (looked up): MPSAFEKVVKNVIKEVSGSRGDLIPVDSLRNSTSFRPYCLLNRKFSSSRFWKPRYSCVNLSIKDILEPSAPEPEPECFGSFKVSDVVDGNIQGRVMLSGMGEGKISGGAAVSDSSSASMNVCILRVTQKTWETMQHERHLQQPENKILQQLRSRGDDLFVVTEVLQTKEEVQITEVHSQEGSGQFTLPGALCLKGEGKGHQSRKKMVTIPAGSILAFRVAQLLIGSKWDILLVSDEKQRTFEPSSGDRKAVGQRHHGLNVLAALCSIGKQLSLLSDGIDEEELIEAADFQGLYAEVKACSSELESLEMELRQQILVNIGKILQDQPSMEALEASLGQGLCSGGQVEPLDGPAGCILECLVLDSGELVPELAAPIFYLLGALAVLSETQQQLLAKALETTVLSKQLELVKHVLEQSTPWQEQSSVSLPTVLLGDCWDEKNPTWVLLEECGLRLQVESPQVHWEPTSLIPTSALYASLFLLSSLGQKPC

[4] = target: the molecule itself; test: crystal structure
[5] = target: T4, GST-Mouse full-length wild type GSDMD (mouse, UniProt Q9D8T2 1-487); test: pull-down
T4 sequence (looked up): T3 sequence (looked up)

[6] = target: T5, GST-Mouse full-length GSDMD harboring L306A/L310A mutations (2A mutant) (mouse, UniProt Q9D8T2 1-487, L306A | L310A); test: pull-down
T5 sequence (looked up): T3 sequence (looked up) with L306A, L310A

[7] = target: T6, GST-Mouse full-length GSDMD harboring L361A/V367A/L370A mutations (3A mutant) (mouse, UniProt Q9D8T2 1-487, L361A | V367A | L370A); test: pull-down
T6 sequence (looked up): T3 sequence (looked up) with L361A, V367A, L370A

[8] = target: T7, GST-Mouse full-length GSDMD harboring V367A/E369K mutations (mouse, UniProt Q9D8T2 1-487, V367A | E369K); test: pull-down
T7 sequence (looked up): T3 sequence (looked up) with V367A, E369K

[9] = target: T8, GST-Mouse full-length GSDMD harboring E369K/L370A mutations (mouse, UniProt Q9D8T2 1-487, E369K | L370A); test: pull-down
T8 sequence (looked up): T3 sequence (looked up) with E369K, L370A

[10] = target: T9, GST-Human full-length wild type GSDMD (human, UniProt P57764 1-484); test: pull-down
T9 sequence (looked up): T1 sequence (looked up)

[11] = target: T10, GST-Human GSDMD harboring truncation of residues 243-278 (human, UniProt P57764 1-484, truncation of residues 243-278); test: pull-down
T10 sequence (looked up): T2 sequence (looked up)

Measured: binding result

B1: human caspase-1 (hCASP1) catalytic domain p22/p10, C285A mutant (enzyme)
chain 1: NPAMPTSSGSEGNVKLCSLEEAQRIWKQKSAEIYPIMDKSSRTRLALIICNEEFDSIPRRTGAEVDITGMTMLLQNLGYSVDVKKNLTASDMTTELEAFAHRPEHKTSDSTFLVFMSHGIREGICGKKHSEQVPDILQLNAIFNMLNTKNCPSLKDKPKVIIIQAARGDSPGVVWFKDSVGVSGNLSLPTTEEFEDD
chain 2: AIKKAHIEKDFIAFCSSTPDNVSWRHPTMGSVFIGRLIEHMQEYACSCDVEEIFRKVRFSFEQPDGRAQMPTTERVTLTRCFYLFPGH
binds: all assays above
